Tests used:
UNC-6ΔC (C. elegans) = UNC-6ΔC (C. elegans) (UniProt P34710); assay: SEC
[1] = target: biotinylated UNC-6ΔC (C. elegans) (UniProt P34710); assay: SPR
[2] = target: UNC-5 N188K ectodomain on yeast (C. elegans); assay: flow cytometry on cells
[3] = target: UNC-5 N18K ectodomain on yeast (C. elegans); assay: flow cytometry on cells
[4] = target: UNC-5 ECD displayed on yeast (C. elegans); assay: flow cytometry on cells
UNC-5 ECD displayed on yeast (C. elegans), sequence (Q26261 whole entry, the tested form may be a part): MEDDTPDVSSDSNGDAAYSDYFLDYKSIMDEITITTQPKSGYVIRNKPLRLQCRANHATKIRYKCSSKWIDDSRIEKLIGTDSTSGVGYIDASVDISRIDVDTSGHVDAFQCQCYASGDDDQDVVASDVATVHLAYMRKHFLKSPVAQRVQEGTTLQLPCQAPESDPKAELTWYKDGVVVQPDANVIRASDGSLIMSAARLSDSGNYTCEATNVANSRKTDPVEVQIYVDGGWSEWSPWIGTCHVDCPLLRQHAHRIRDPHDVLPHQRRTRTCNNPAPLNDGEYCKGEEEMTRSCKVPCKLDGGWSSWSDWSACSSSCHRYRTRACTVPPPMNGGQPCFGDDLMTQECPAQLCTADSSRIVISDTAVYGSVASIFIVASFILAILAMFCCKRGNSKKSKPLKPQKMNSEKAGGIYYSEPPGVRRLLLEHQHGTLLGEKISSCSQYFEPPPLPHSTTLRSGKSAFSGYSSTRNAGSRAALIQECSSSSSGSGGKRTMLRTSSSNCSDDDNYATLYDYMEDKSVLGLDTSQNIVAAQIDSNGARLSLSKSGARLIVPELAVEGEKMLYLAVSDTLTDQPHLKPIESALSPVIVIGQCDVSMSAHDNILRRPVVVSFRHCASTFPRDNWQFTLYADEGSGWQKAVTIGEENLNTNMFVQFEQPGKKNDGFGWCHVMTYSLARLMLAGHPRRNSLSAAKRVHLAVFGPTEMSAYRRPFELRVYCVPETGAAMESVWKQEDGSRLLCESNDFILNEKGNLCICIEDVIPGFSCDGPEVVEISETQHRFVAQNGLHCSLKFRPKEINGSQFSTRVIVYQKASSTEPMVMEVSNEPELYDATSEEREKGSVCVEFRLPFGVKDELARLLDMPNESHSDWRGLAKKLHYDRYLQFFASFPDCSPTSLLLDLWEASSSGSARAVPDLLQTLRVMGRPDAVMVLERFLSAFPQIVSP

biotinylated UNC-6ΔC (C. elegans), sequence (P34710 22-461, stated change not applied): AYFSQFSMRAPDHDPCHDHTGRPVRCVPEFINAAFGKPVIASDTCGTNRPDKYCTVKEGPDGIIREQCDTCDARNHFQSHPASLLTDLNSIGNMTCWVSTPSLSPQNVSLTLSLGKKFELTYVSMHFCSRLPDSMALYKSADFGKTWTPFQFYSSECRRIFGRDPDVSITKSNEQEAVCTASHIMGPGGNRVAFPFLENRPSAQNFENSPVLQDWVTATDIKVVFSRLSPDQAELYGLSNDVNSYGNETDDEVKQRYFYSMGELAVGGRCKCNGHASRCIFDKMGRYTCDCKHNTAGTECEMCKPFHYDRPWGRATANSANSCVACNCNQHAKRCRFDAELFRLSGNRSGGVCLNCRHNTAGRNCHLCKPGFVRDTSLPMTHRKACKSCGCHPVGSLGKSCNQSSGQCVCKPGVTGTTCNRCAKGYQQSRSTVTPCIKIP
biotinylated UNC-6ΔC, sequence (P34710 22-461, stated change not applied): as above
UNC-6ΔC (C. elegans), sequence (P34710 22-461, stated change not applied): as above

stoichiometry N (UNC-6ΔC (C. elegans)) | KD with heparin [1] [nM] | Kd [1] [nM] | fold loss of affinity against WT UNC-5 [1] [fold] | Kd [2] [nM] | Kd [3] [nM] | KD with heparin [4] [nM] | Substance
1 | 1200 | 46000 |  |  |  |  | UNC-5 ECD (receptor)
 | 50000 to 100000 |  | 2 |  |  |  | UNC-5 ECD R17E R70E (receptor)
 |  |  |  | 16.4 | 8.2 | 35 | biotinylated UNC-6ΔC (from UniProt P34710 22-461) (ligand)

— PMC10871540
